Measured values: US20220242945A1 (SORRISO PHARMACEUTICALS, published 2022)

T1: recombinant human IL-23 (human, UniProt Q9NPF7 20-189; P29460 23-328)
T1 construct: Heterodimer of p19 and p40; also called hIL-23; interleukin-23; not shown: single C-terminal 6xHis tag
T1 sequence 1: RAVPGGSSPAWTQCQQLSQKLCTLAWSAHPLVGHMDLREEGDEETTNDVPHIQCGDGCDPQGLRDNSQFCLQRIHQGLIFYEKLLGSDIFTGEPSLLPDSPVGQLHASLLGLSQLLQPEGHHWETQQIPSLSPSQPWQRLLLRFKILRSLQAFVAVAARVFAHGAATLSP
T1 sequence 2: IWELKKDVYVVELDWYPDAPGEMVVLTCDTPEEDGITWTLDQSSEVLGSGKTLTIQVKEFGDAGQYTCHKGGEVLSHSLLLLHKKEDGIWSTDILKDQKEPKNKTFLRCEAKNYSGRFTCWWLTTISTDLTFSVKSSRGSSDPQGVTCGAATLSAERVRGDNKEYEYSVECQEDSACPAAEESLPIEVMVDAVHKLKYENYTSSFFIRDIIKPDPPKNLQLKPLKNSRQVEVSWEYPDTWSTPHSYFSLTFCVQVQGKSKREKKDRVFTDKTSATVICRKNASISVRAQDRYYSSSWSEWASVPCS

T2: THP-1 derived nhIL-23 (human, UniProt Q9NPF7 20-189; P29460 23-328)
T2 sequence (looked up) 1: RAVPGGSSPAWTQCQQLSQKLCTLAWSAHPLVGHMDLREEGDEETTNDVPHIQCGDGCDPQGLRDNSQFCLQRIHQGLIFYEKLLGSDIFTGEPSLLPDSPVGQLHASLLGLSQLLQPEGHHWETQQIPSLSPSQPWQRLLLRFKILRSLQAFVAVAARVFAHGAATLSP
T2 sequence (looked up) 2: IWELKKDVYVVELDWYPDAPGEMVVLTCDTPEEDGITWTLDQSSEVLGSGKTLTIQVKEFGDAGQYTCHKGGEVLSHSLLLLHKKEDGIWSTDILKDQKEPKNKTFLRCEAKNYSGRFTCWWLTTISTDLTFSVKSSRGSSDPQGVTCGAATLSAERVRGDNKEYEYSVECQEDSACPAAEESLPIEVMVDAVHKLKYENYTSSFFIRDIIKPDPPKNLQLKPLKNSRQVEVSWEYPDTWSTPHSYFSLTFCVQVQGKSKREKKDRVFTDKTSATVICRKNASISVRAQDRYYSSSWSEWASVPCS

B1: 10G10 (VHH)
VHH: EVQLVESGGGLVQAGTSLRLSCAASGRTFSNYIMGWFRQAPGKEREFVAIITANGVATDYRDSVKGRFTISRDNARNTGYLEMNSLKPEDTAVYFCALRTRSGSLFDPGTFDYWGQGTQVTVSS
notes: Purified primary clone made in E. coli; not shown: C-terminal FLAG and 6xHis tags from vector pMEK222
B2: 12G1 (VHH)
VHH: EVQLVESGGGLVQPGGSLRLSCAASVSIWSFKVMGWYRQVPGKQRELVATITTGGSPDYADSVKGRFTMSRDYDKRTVFLEMDSVKPEDAAVYYCNGRLWAHLTSSGHDVWGQGTRVTVSS
notes: Purified primary clone made in E. coli; also called Family L ICVD 12G1; not shown: C-terminal FLAG and 6xHis tags from vector pMEK222
B3: 1E2 (VHH)
VHH: EVQLVESGGGLVQPGGSLRLSCAASVSIWSFKVMGWYRQVPGKQRELVATITTGGSPDYADSVKGRFTMSRDYDKRTVFLEMDSVKPEDAAVYYCNGRLWAHLTSSGHDVWGQGTQVTVSS
notes: Purified primary clone made in E. coli; also called Family L ICVD 1E2; not shown: C-terminal FLAG and 6xHis tags from vector pMEK222
B4: ID-L210T (VHH)
VHH: EVQLVESGGGQVQPGGSLRLSCESSVSIWSFKVMGWFRQVPGKQRELVATITTGGSPDYSDSVKGRFTISRDYDKRTLYLQMNSLKPEDTARYYCAGRLWAHITSSGHDVWGQGTQVTVSS
notes: Relative to ID-L253T: D1E, S19R, V92R
B5: ID-L249T (VHH)
VHH: EVQLVESGGGQVQPGGSLSLSCESSVSIWSFKVMGWFRQAPGKQLELVATITTGGSPHYSDSVKGRFTISRDYDKRTLYLQMNSLKPEDTAVYYCAGRLWAHITSSGHDVWGQGTQVTVSS
notes: Relative to ID-L253T: D1E, V40A, R45L, D58H
B6: ID-L244T (VHH)
VHH: EVQLVESGGGQVQPGGSLRLSCESSVSIWSFKVMGWFRQVPGKQRELVATITTGGSPDYSDSVKGRFTISRDYDKRTLYLQMNSLKPEDTAVYYCAGRLWAHITSSGHDVWGQGTQVTVSS
notes: Relative to ID-L253T: D1E, S19R
B7: ID-L238T (VHH)
VHH: EVQLVESGGGQVQPGGSLRLSCESSVSIWSFKVMGWFRQAPGKQRELVATITTGGSPDYSDSVKGRFTISRDYDKRTLYLQMNSLKPEDTARYYCAGRLWAHITSSGHDVWGQGTQVTVSS
notes: Relative to ID-L253T: D1E, S19R, V40A, V92R
B8: ID-L251T (VHH)
VHH: EVQLVESGGGQVQPGGSLRLSCESSVSIWSFKVMGWFRQVPGKEREFVATITTGGSPHYSDSVKGRFTISRDYDKRTLYLQMNSLKPEDTAVYYCAGRLWAHITSSGHDVWGQGTQVTVSS
notes: Relative to ID-L253T: D1E, S19R, Q44E, L47F, D58H
B9: ID-L242T (VHH)
VHH: EVQLVESGGGQVQPGGSLRLSCESSVSIWSFKVMGWFRQVPGKQRELVATITTGGSPDYRDSVKGRFTISRDYDKRTLYLQMNSLKPEDTARYYCAGRLWAHITSSGHDVWGQGTQVTVSS
notes: Relative to ID-L253T: D1E, S19R, S60R, V92R
B10: ID-L241T (VHH)
VHH: EVQLVESGGGQVQPGGSLRLSCESSVSIWSFKVMGWFRQVPGKQRELVATITTGGSPHYSDSVKGRFTISRDYDKRTLYLQMNSLKPEDTARYYCAGRLWAHITSSGHDVWGQGTQVTVSS
notes: Relative to ID-L253T: D1E, S19R, D58H, V92R
B11: ID-L237T (VHH)
VHH: EVQLVESGGGQVQPGGSLSLSCESSVSIWSFKVMGWFRQVPGKQRELVATITTGGSPDYSDSVKGRFTISRDYDKRTLYLQMNSLKPEDTARYYCAGRLWAHITSSGHDVWGQGTQVTVSS
notes: Relative to ID-L253T: D1E, V92R
B12: ID-L239T (VHH)
VHH: EVQLVESGGGQVQPGGSLRLSCESSVSIWSFKVMGWFRQVPGKQLELVATITTGGSPDYSDSVKGRFTISRDYDKRTLYLQMNSLKPEDTARYYCAGRLWAHITSSGHDVWGQGTQVTVSS
notes: Relative to ID-L253T: D1E, S19R, R45L, V92R
B13: ID-L247T (VHH)
VHH: EVQLVESGGGQVQPGGSLSLSCESSVSIWSFKVMGWFRQAPGKQLELVATITTGGSPDYSDSVKGRFTISRDYDKRTLYLQMNSLKPEDTAVYYCAGRLWAHITSSGHDVWGQGTQVTVSS
notes: Relative to ID-L253T: D1E, V40A, R45L
B14: ID-L252T (VHH)
VHH: EVQLVESGGGQVQPGGSLSLSCESSVSIWSFKVMGWFRQAPGKELELVATITTGGSPDYSDSVKGRFTLSRDYDKRTVYLQMNSLKPEDTAVYYCAGRLWAHITSSGHDVWGQGTQVTVSS
notes: Relative to ID-L253T: D1E, V40A, Q44E, R45L, I69L, L78V
B15: ID-L245T (VHH)
VHH: EVQLVESGGGQVQPGGSLSLSCESSVSIWSFKVMGWFRQVPGKQRELVATITTGGSPDYSDSVKGRFTISRDYDKRTLYLQMNSLKPEDTAVYYCAGRLWAHITSSGHDVWGQGTQVTVSS
notes: Relative to ID-L253T: D1E
B16: ID-L248T (VHH)
VHH: EVQLVESGGGQVQPGGSLSLSCESSVSIWSFKVMGWFRQVPGHQLELVATITTGGSPDYSDSVKGRFTISRDYDKRTLYLQMNSLKPEDTAVYYCAGRLWAHITSSGHDVWGQGTQVTVSS
notes: Relative to ID-L253T: D1E, K43H, R45L
B17: ID-L246T (VHH)
VHH: EVQLVESGGGQVQPGGSLSLSCESSVSIWSFKVMGWFRQAPGKQRELVATITTGGSPDYSDSVKGRFTLSRDYDKRTVYLQMNSLKPEDTAVYYCAGRLWAHITSSGHDVWGQGTQVTVSS
notes: Relative to ID-L253T: D1E, V40A, I69L, L78V
B18: ID-L243T (VHH)
VHH: EVQLVESGGGQVQPGGSLRLSCESSVSIWSFKVMGWFRQVPGKQRELVATITTGGSPDYSDSVKGRFTISRDYDKRTLYLQMNSLKSEDTARYYCAGRLWAHITSSGHDVWGQGTQVTVSS
notes: Relative to ID-L253T: D1E, S19R, P87S, V92R
B19: ID-L250T (VHH)
VHH: EVQLVESGGGQVQPGGSLSLSCESSVSIWSFKVMGWFRQAPGKQLEFVATITTGGSPHYSDSVKGRFTISRDYDKRTLYLQMNSLKPEDTAVYYCAGRLWAHITSSGHDVWGQGTQVTVSS
notes: Relative to ID-L253T: D1E, V40A, R45L, L47F, D58H
B20: ID-38F (VHH)
VHH: DVQLVESGGGLVQPGGSLKLSCAASGFDFSSHWMYWVRQAPGKELEWLSEINTNGLITHYGDSVKGRFTVSRNNAANKMYLELTRLEPEDTALYYCARNQHGLNKGQGTQVTVSS
notes: also called anti-TNF-alpha ICVD ID-38F
B21: FA1K (bispecific antibody)
chain: DVQLVESGGGLVQPGGSLKLSCAASGFDFSSHWMYWVRQAPGKELEWLSEINTNGLITHYGDSVKGRFTVSRNNAANKMYLELTRLEPEDTALYYCARNQHGLNKGQGTQVTVSSGGGGSGGGGSKGGGGSGGGGSEVQLVESGGGQVQPGGSLSLSCESSVSIWSFKVMGWFRQVPGKQRELVATITTGGSPDYSDSVKGRFTISRDYDKRTLYLQMNSLKPEDTAVYYCAGRLWAHITSSGHDVWGQGTQVTVSS
notes: Before trypsin treatment; also called heterobihead anti-IL-23/anti-TNF-alpha construct; ID-38F-(G4S)2-K-(G4S)2-ID-L253T
B22: 10E2 (VHH)
VHH: EVQLVESGGGLAQAGGSLRLSCAPSGRAFSGSAMGWFRQVPGKEREFVGVIIWTGGYTYYADSVKGRFTISRDSAKNTVYLQMDSLKPEDTAVYYCAARTPNSSWFPTTLYEYDYWGQGTQVTVSS
notes: as for B1

Experiments:
recombinant human IL-23 [1] = target: T1, recombinant human IL-23; assay: IL-23-IL-23R neutralisation ELISA (Evaluation Method A): ICVD titrated with recombinant human IL-23, binding to coated IL-23R-Fc
Description: (§1) Maxisorp 96-well plates were coated overnight with 50 μl/well 0.3 μg/ml IL-23R-Fc then blocked with 4% milk, 1% BSA.

THP-1 derived nhIL-23 = target: T2, THP-1 derived nhIL-23; assay: cell-based or functional assay
recombinant human IL-23 [2] = target: T1, recombinant human IL-23; assay: IL-23-IL-23R neutralisation ELISA; average of 5 independent experiments
Description: as §1
(§2) The Family L ICVD 12G1 underwent sequence modification to produce multiple variant ICVDs. These variant ICVDs were tested in the potency and protease stability assays detailed above.

recombinant human IL-23 [3] = target: T1, recombinant human IL-23; assay: IL-23-IL-23R neutralisation ELISA; one experiment, left out of the average by the filing as an outlier
recombinant human IL-23 [4] = target: T1, recombinant human IL-23; assay: IL-23-IL-23R neutralisation ELISA
Description: as §1, §2

human TNFα = target: T3, human TNFα (human, UniProt P01375 77-233); assay: competition ELISA on plate-coated human TNFα; competitor 2 nM biotinylated adalimumab, detected with ExtrAvidin-HRP, A450
T3 construct: also called TNF-alpha
T3 sequence (P01375 77-233 limits assumed): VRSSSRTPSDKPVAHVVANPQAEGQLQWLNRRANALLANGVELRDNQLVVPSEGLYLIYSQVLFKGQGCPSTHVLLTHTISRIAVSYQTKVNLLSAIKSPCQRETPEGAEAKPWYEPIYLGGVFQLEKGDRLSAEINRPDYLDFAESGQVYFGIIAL
Description: ELISA plates were coated with 100 ng/mL human TNFα in 250 μg/mL bovine serum albumin (BSA) in phosphate buffered saline (1×PBS) and blocked with 1% BSA in 1× PBS. […] Otherwise 1% BSA was used as an assay diluent.

recombinant human IL-23 [5] = target: T1, recombinant human IL-23; assay: IL-23-IL-23R neutralisation ELISA (sheet title 'IL-23 IL23R ELISA'); construct blocks binding of IL-23 to IL-23R; A450

| Binder | Mouse splenocyte (EC50; mIL-17 secretion, Evaluation Method C) (THP-1 derived nhIL-23) | EC50 (recombinant human IL-23 [4]) | also measured |
| --- | --- | --- | --- |
| B1 |  |  | EC50 (recombinant human IL-23 [1]): 1.47 nM |
| B2 |  |  | EC50 (recombinant human IL-23 [1]): 0.387 nM |
| B3 |  |  | EC50 (recombinant human IL-23 [1]): 0.546 nM |
| B4 | 5.63 nM |  | EC50 (recombinant human IL-23 [2]): 0.32 nM; EC50 (recombinant human IL-23 [3]): 1.1 nM |
| B5 | 4.27 nM | 0.74 nM |  |
| B6 | 6.62 nM | 0.24 nM |  |
| B7 | 5.54 nM | 0.2 nM |  |
| B8 | 5.74 nM | 1.99 nM |  |
| B9 | 3.01 nM | 0.22 nM |  |
| B10 | 3.51 nM | 0.31 nM |  |
| B11 | 6.35 nM | 0.24 nM |  |
| B12 | 3.84 nM | 0.26 nM |  |
| B13 | 4.52 nM | 0.31 nM |  |
| B14 | 5.2 nM | 0.26 nM |  |
| B15 |  | 0.25 nM |  |
| B16 | 4.47 nM | 0.17 nM |  |
| B17 |  | 2.15 nM |  |
| B18 | 5 nM | 0.27 nM |  |
| B19 |  | 6.95 nM |  |
| B20 |  |  | binding result (human TNFα): binds |
| B21 |  |  | binding result (recombinant human IL-23 [5]): binds; binding result (human TNFα): binds |
| B22 |  |  | EC50 (recombinant human IL-23 [1]): 1.45 nM |
